Where no end group is shown, it is not given here. The star is where a group is joined. Biotin = O=C1N[C@H]2[C@H](CS[C@H]2CCCCC(=O)*)N1
Assays:
Peptide 2 = molecular target: T1, Peptide 2 (human); assay: solid phase ELISA, BSA-conjugated peptide on plate
T1 construct: Synthetic peptide; lacks the C-terminal aspartic acid of Peptide 1
T1 peptide: {BSA}-RRLLEDGEDFNLGDAL
Protocol: (1) BSA was added to the N-terminus of Peptide 1 and Peptide 2. (2) Each peptide was added to an ELISA plate at 5 μg/mL and 100 μL/well, and the plate was allowed to stand at 4° C. overnight to immobilize the peptide. Thereafter, the plate was washed three times with PBST, and Buffer I′ (10 mM NaH₂PO₄.2H₂O, 149.7 mM NaCl, 2.5 mM EDTA 2Na, 0.10% BSA, pH 7.0) was added thereto at 200 μL/well to prepare a plate stored at 4° C. overnight. […] (5) The plate was washed three times with PBST, and 15000-fold diluted Peroxidase-conjugated Affinipure F(ab)′2 Fragment Goat Anti-Mouse IgG (H+L) (Jackson) was added thereto at 100 μL/well, followed by shaking at room temperature for 1 hour. (6) The plate was washed three times with PBST, TMB Mix (1-step Ultra TMB-ELISA (Thermo Scientific):3% H₂O₂: Phosphate-Citrate buffer (Sigma)=15:0.15:14.85) was added thereto at 100 μL/well, and the mixture was reacted at room temperature for 10 minutes. Thereafter, 1 M H₂SO₄ was added thereto at 100 μL/well to stop the reaction. (7) Absorbance of the reaction solution at 450 nm was measured with a plate reader.

Peptide 27 = molecular target: T2, Peptide 27 (human); assay: solid phase ELISA; biotinylated peptide on plate, antibody 2 ug/ml
T2 peptide: Biotin-LLEDGEDFNLGDALD
Protocol: (1) The peptides shown in Table 2 were synthesized, and biotin was added to the N-terminal side. (2) The synthesized peptides were dissolved in 80% DMSO solution and further diluted to 1 μg/ml with PBST. (3) After washing an ELISA plate three times with PBST, a biotinylated peptide was added thereto at 100 μL/well, and the plate was allowed to stand at room temperature for 1 hour to immobilize the peptide. Thereafter, the plate was washed three times with PBST, and Buffer I′ (10 mM NaH₂PO₄.2H₂O, 149.7 mM NaCl, 2.5 mM EDTA 2Na, 0.10% BSA, pH 7.0) was added thereto at 200 μL/well to prepare a plate stored at 4° C. overnight. (4) The plate was washed three times with PBST, and an antibody diluted to 2 μg/ml was added thereto at 50 μL/well, followed by shaking at room temperature for 1 hour. (5) The plate was washed three times with PBST, and an Anti-Mouse IgG POD antibody diluted about 5000 fold with Buffer I′ (10 mM NaH₂PO₄.2H₂O, 149.7 mM NaCl, 2.5 mM EDTA 2Na, 0.10% BSA, pH 7.0) was added thereto at 50 μL/well, followed by shaking at room temperature for 1 hour. (6) The plate was washed three times with PBST, TMB Mix (1-step Ultra TMB-ELISA (Thermo Scientific):3% H₂O₂: Phosphate-Citrate buffer (Sigma)=15:0.15:14.85) was added thereto at 100 μL/well, and the mixture was reacted at room temperature for 10 minutes. Thereafter, 1 M H₂SO₄ was added thereto at 100 μL/well to stop the reaction. (7) Absorbance of the reaction solution at 450 nm was measured with a plate reader.

rfCK18 (239-396) = molecular target: T3, rfCK18 (239-396) (human, UniProt P05783 239-396); assay: solid phase ELISA, antigen captured through anti-GST or penta HIS antibody
T3 construct: Bought (Cloud-Clone-Corp.); captured through an anti-GST or penta HIS antibody, the tag is not described
T3 sequence: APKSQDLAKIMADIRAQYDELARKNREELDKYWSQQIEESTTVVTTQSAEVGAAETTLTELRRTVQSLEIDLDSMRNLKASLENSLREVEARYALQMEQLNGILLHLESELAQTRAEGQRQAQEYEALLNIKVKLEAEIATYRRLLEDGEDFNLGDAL
Protocol: (1) An ANTI GST antibody or a penta HIS antibody was added to an ELISA plat at 2.5 μg/mL and 50 μL/well, and the plate was allowed to stand at 4° C. overnight to immobilize the antibody. Thereafter, the plate was washed three times with PBST, and Buffer I′ (10 mM NaH₂PO₄.2H₂O, 149.7 mM NaCl, 2.5 mM EDTA 2Na, 0.10% BSA, pH 7.0) was added thereto at 200 μL/well to prepare a plate stored at 4° C. overnight. […] (3) The plate was washed three times with PBST, and 50 μL each of each antigen diluent was added thereto, followed by shaking for 45 minutes. […] (6) The plate was washed three times with PBST, and 15000-fold diluted Peroxidase-conjugated Affinipure F(ab)′2 Fragment Goat Anti-Mouse IgG (H+L) (Jackson) was added thereto at 50 μL/well, followed by shaking for 45 minutes. (7) The plate was washed three times with PBST, TMB Mix (1-step Ultra TMB-ELISA (Thermo Scientific):3% H₂O₂: Phosphate-Citrate buffer (Sigma)=15:0.15:14.85) was added thereto at 100 μL/well, and the mixture was reacted at room temperature for 10 minutes. Thereafter, 1 M H₂SO₄ was added thereto at 100 μL/well to stop the reaction. (8) Absorbance of the reaction solution at 450 nm was measured with a plate reader.

[1] = molecular target: T4, fCK18 in apoptosis-induced HepG2 cell culture supernatant (human, UniProt P05783 239-397); assay: HISCL sandwich immunoassay; K18-624 magnetic microbeads capture, K18-328Fab-ALP detector
T4 construct: Natural CK18 fragment from the culture supernatant of apoptosis-induced HepG2 cells (band around 18 KDa); also called fCK18 in apoptosis-inducing cells
T4 sequence: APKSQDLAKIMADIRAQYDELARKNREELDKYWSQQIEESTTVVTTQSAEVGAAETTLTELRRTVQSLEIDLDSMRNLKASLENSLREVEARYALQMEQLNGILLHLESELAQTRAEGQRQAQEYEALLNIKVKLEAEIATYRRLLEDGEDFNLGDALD

[2] = molecular target: T4, fCK18 in apoptosis-induced HepG2 cell …; assay: plate ELISA with K18-624 magnetic microbeads, K18-328Fab-ALP detector
Protocol: Measurement samples of 3-fold dilution series (3-fold to 6561-fold dilution) were prepared from the apoptosis-induced HepG2 cell culture supernatant with a diluent (TBS, pH 7.5, 2% BSA), and fCK18 was measured. […] Based on the prepared calibration curve, fCK18 in the measurement sample was measured.
This solution was added to an ELISA plate at 25 μL/well, then each measurement sample was added at 25 μL/well, and the plate was incubated (1500 rpm, RT, 20 min). […] (3) After washing the plate, the HISCL (registered trademark) R4 reagent was added thereto at 50 μL/well, and then the mixture was stirred (1500 rpm, RT, 1 min). Thereafter, the HISCL (registered trademark) R5 reagent was added at 100 μL/well, and then the mixture was stirred (1000 rpm, RT, 10 sec). (4) Luminescence intensity was measured with a plate reader.

B1: K18-624 antibody (antibody, V domains shown)
VH: DVQLVESGGGLVQPGGSRKLSCAASGFTFSSFGMHWVRQAPEKGLEWVAYISSGSTTIYYADTVKGRFTISRDNPKNTLFLQMTSLRSEDTAMYYCARRGMITTGAWFAYWGQGTLVTVSA
VL: DILLTQSPAILSVSPGERVSFSCRASQRIGTSIHWYQQRTNGSPRLLIKYASESISGIPSRFSGSGSGTDFTLSINSVESEDIADYYCQQSYIWPFTFGSGTKLEIK
notes: Mouse monoclonal antibody from a hybridoma (Balb/C mouse immunised with Peptide 1-KLH)
binding result (Peptide 2): no binding (tested: 5 to 10 ng/mL)
Abs450 (Peptide 27): 2.34
binding result (rfCK18 (239-396)): no binding (tested: 5 to 10 ng/mL)
fCK18 concentration detectable (S/N ratio of 2 or more) [1]: ≥ 0.28 ng/mL
fold detection sensitivity compared with Comparative Example 1 (M30 antibody) [1]: ~8 fold
fCK18 concentration detectable (S/N ratio of 2 or more) [2]: ≥ 0.09 ng/mL
fold detection sensitivity compared with Comparative Example 1 (M30 antibody) [2]: ~24 fold
